Data: the supplement of paper PMC11246515
± gives the standard deviation of the averaged measurements.

Assay: total protein half-life in vivo (active degradation + dilution); higher = more stable protein
[1] = E. coli NCM3722 delta-clpP delta-lon delta-hslV, growth: N-lim chemostat, doubling time 6 h
[2] = E. coli NCM3722 delta-clpP, growth: N-lim chemostat, doubling time 6 h
[3] = E. coli NCM3722 delta-hslV, growth: N-lim chemostat, doubling time 6 h
[4] = E. coli NCM3722 delta-lon, growth: N-lim chemostat, doubling time 6 h
[5] = E. coli NCM3722 delta-smpB, growth: N-lim chemostat, doubling time 6 h
[6] = wild type E. coli NCM3722, growth: C-lim chemostat, doubling time 3 h
[7] = wild type E. coli NCM3722, growth: C-lim chemostat, doubling time 6 h
[8] = wild type E. coli NCM3722, growth: C-lim chemostat, doubling time 12 h
[9] = wild type E. coli NCM3722, growth: N-lim chemostat, doubling time 6 h
[10] = wild type E. coli NCM3722, growth: N-lim chemostat, doubling time 12 h
[11] = wild type E. coli NCM3722, growth: P-lim chemostat, doubling time 6 h
[12] = wild type E. coli NCM3722, growth: P-lim chemostat, doubling time 12 h

Sequence: MAYKHIGVAISGNEEDALLVNKALELARHNDAHLTLIHIDDGLSELYPGIYFPATEDILQLLKNKSDNKLYKLTKNIQWPKTKLRIERGEMPETLLEIMQKEQCDLLVCGHHHSFINRLMPAYRGMINKMSADLLIVPFIDK [P0AAB8]
- total protein half-life in vivo [1]: 4.18 ± 0.41 h
- total protein half-life in vivo [2]: 3.79 ± 0.29 h
- total protein half-life in vivo [3]: 3.73 h
- total protein half-life in vivo [4]: 4.56 ± 0.14 h
- total protein half-life in vivo [5]: 2.7 ± 0.18 h
- total protein half-life in vivo [6]: 2.99 h
- total protein half-life in vivo [7]: 5.49 h
- total protein half-life in vivo [8]: 9.51 ± 0.66 h
- total protein half-life in vivo [9]: 3.69 h
- total protein half-life in vivo [10]: 5.52 ± 0.12 h
- total protein half-life in vivo [11]: 4.66 ± 0.43 h
- total protein half-life in vivo [12]: 10.7 ± 0.12 h

Sequence: MATIKDVARLAGVSVATVSRVINNSPKASEASRLAVHSAMESLSYHPNANARALAQQTTETVGLVVGDVSDPFFGAMVKAVEQVAYHTGNFLLIGNGYHNEQKERQAIEQLIRHRCAALVVHAKMIPDADLASLMKQMPGMVLINRILPGFENRCIALDDRYGAWLATRHLIQQGHTRIGYLCSNHSISDAEDRLQGYYDALAESGIAANDRLVTFGEPDESGGEQAMTELLGRGRNFTAVACYNDSMAAGAMGVLNDNGIDVPGEISLIGFDDVLVSRYVRPRLTTVRYPIVTMATQAAELALALADNRPLPEITNVFSPTLVRRHSVSTPSLEASHHATSD
- total protein half-life in vivo [1]: 5.91 ± 1.8 h
- total protein half-life in vivo [3]: 3.24 ± 0.35 h
- total protein half-life in vivo [4]: 2.72 ± 0.32 h
- total protein half-life in vivo [5]: 2.572 ± 0.0072 h
- total protein half-life in vivo [6]: 2.29 ± 0.2 h
- total protein half-life in vivo [7]: 4.35 ± 0.17 h
- total protein half-life in vivo [8]: 7.06 ± 0.13 h
- total protein half-life in vivo [9]: 2.8 ± 0.21 h
- total protein half-life in vivo [10]: 3.77 ± 0.39 h
- total protein half-life in vivo [11]: 3.26 ± 0.047 h
- total protein half-life in vivo [12]: 6.28 ± 0.3 h

Sequence: MKNDVISPEFDENGRPLRRIRSFVRRQGRLTKGQEHALENYWPVMGVEFSEDMLDFPALFGREAPVTLEIGFGMGASLVAMAKDRPEQDFLGIEVHSPGVGACLASAHEEGLSNLRVMCHDAVEVLHKMIPDNSLRMVQLFFPDPWHKARHNKRRIVQVPFAELVKSKLQLGGVFHMATDWEPYAEHMLEVMSSIDGYKNLSESNDYVPRPASRPVTKFEQRGHRLGHGVWDLMFERVK [P0A8I5]
- total protein half-life in vivo [1]: 5.11 ± 0.029 h
- total protein half-life in vivo [2]: 4.82 h
- total protein half-life in vivo [3]: 7.09 h
- total protein half-life in vivo [5]: 4.18 ± 0.61 h
- total protein half-life in vivo [6]: 2.73 h
- total protein half-life in vivo [7]: 4.88 ± 0.4 h
- total protein half-life in vivo [8]: 8.12 ± 0.26 h
- total protein half-life in vivo [9]: 4.58 ± 0.17 h
- total protein half-life in vivo [10]: 7.49 ± 1.2 h
- total protein half-life in vivo [11]: 3.77 h
- total protein half-life in vivo [12]: 8.11 ± 0.11 h

Sequence: MSDKFGEGRDPYLYPGLDIMRNRLNIRQQQRLEQAAYEMTALRAATIELGPLVRGLPHLRTIHRQLYQDIFDWAGQLREVDIYQGDTPFCHFAYIEKEGNALMQDLEEEGYLVGLEKAKFVERLAHYYCEINVLHPFRVGSGLAQRIFFEQLAIHAGYQLSWQGIEKEAWNQANQSGAMGDLTALQMIFSKVVSEAGESE
- total protein half-life in vivo [1]: 4.96 ± 0.27 h
- total protein half-life in vivo [2]: 4.09 ± 0.47 h
- total protein half-life in vivo [3]: 4.81 ± 0.64 h
- total protein half-life in vivo [4]: 4.4 ± 0.57 h
- total protein half-life in vivo [5]: 4.69 ± 0.42 h
- total protein half-life in vivo [7]: 6.07 ± 0.18 h
- total protein half-life in vivo [8]: 10.2 ± 1.9 h
- total protein half-life in vivo [9]: 4.39 ± 0.17 h
- total protein half-life in vivo [10]: 7.12 ± 0.43 h
- total protein half-life in vivo [11]: 6.02 ± 0.4 h
- total protein half-life in vivo [12]: 7.72 ± 3.9 h

Sequence: MATGKSCSRWFAPLAALLMVVSLSGCFDKEGDQRKAFIDFLQNTVMRSGERLPTLTADQKKQFGPFVSDYAILYGYSQQVNQAMDSGLRPVVDSVNAIRVPQDYVTQSGPLREMNGSLGVLAQQLQNAKLQADAAHSALKQSDDLKPVFDQAFTKVVTTPADALQPLIPAAQTFTQQLVMVGDYIAQQGTQVSFVANGIQFPTSQQASEYNKLIAPLPAQHQAFNQAWTTAVTATQ [P0ADK0]
- total protein half-life in vivo [1]: 6.1 ± 0.091 h
- total protein half-life in vivo [3]: 6.34 ± 0.47 h
- total protein half-life in vivo [4]: 6.34 ± 0.28 h
- total protein half-life in vivo [5]: 6.1 ± 0.9 h
- total protein half-life in vivo [6]: 3.007 ± 0.025 h
- total protein half-life in vivo [7]: 6.13 ± 0.24 h
- total protein half-life in vivo [8]: 13.5 ± 1.5 h
- total protein half-life in vivo [9]: 5.79 ± 0.17 h
- total protein half-life in vivo [10]: 12.5 ± 0.65 h
- total protein half-life in vivo [11]: 5.88 ± 0.16 h
- total protein half-life in vivo [12]: 12.5 ± 1.1 h

Sequence: MAGNVQEKQLRWYNIALMSFITVWGFGNVVNNYANQGLVVVFSWVFIFALYFTPYALIVGQLGSTFKDGKGGVSTWIKHTMGPGLAYLAAWTYWVVHIPYLAQKPQAILIALGWAMKGDGSLIKEYSVVALQGLTLVLFIFFMWVASRGMKSLKIVGSVAGIAMFVMSLLYVAMAVTAPAITEVHIATTNITWETFIPHIDFTYITTISMLVFAVGGAEKISPYVNQTRNPGKEFPKGMLCLAVMVAVCAILGSLAMGMMFDSRNIPDDLMTNGQYYAFQKLGEYYNMGNTLMVIYAIANTLGQVAALVFSIDAPLKVLLGDADSKYIPASLCRTNASGTPVNGYFLTLVLVAILIMLPTLGIGDMNNLYKWLLNLNSVVMPLRYLWVFVAFIAVVRLAQKYKPEYVFIRNKPLAMTVGIWCFAFTAFACLTGIFPKMEAFTAEWTFQLALNVATPFVLVGLGLIFPLLARKANSK
- total protein half-life in vivo [7]: 6.93 h

Sequence: MTAELLVNVTPSETRVAYIDGGILQEIHIEREARRGIVGNIYKGRVSRVLPGMQAAFVDIGLDKAAFLHASDIMPHTECVAGEEQKQFTVRDISELVRQGQDLMVQVVKDPLGTKGARLTTDITLPSRYLVFMPGASHVGVSQRIESESERERLKKVVAEYCDEQGGFIIRTAAEGVGEAELASDAAYLKRVWTKVMERKKRPQTRYQLYGELALAQRVLRDFADAELDRIRVDSRLTYEALLEFTSEYIPEMTSKLEHYTGRQPIFDLFDVENEIQRALERKVELKSGGYLIIDQTEAMTTVDINTGAFVGHRNLDDTIFNTNIEATQAIARQLRLRNLGGIIIIDFIDMNNEDHRRRVLHSLEQALSKDRVKTSVNGFSALGLVEMTRKRTRESIEHVLCNECPTCHGRGTVKTVETVCYEIMREIVRVHHAYDSDRFLVYASPAVAEALKGEESHSLAEVEIFVGKQVKVQIEPLYNQEQFDVVMM [P0A9J0]
- total protein half-life in vivo [1]: 3.85 ± 0.3 h
- total protein half-life in vivo [2]: 2.58 ± 0.087 h
- total protein half-life in vivo [3]: 3.04 ± 0.55 h
- total protein half-life in vivo [4]: 3.28 ± 0.38 h
- total protein half-life in vivo [5]: 2.62 ± 0.21 h
- total protein half-life in vivo [6]: 3.09 ± 0.69 h
- total protein half-life in vivo [7]: 4.36 ± 0.16 h
- total protein half-life in vivo [8]: 8.57 ± 0.57 h
- total protein half-life in vivo [9]: 2.6 ± 0.14 h
- total protein half-life in vivo [10]: 3.45 ± 0.073 h
- total protein half-life in vivo [11]: 5.69 ± 0.42 h
- total protein half-life in vivo [12]: 10.35 ± 0.087 h

Sequence: MSNAITMGIFWHLIGAASAACFYAPFKKVKKWSWETMWSVGGIVSWIILPWAISALLLPNFWAYYSSFSLSTRLPVFLFGAMWGIGNINYGLTMRYLGMSMGIGIAIGITLIVGTLMTPIINGNFDVLISTEGGRMTLLGVLVALIGVGIVTRAGQLKERKMGIKAEEFNLKKGLVLAVMCGIFSAGMSFAMNAAKPMHEAAAALGVDPLYVALPSYVVIMGGGAIINLGFCFIRLAKVKDLSLKADFSLAKSLIIHNVLLSTLGGLMWYLQFFFYAWGHARIPAQYDYISWMLHMSFYVLCGGIVGLVLKEWNNAGRRPVTVLSLGCVVIIVAANIVGIGMAN
- total protein half-life in vivo [10]: 7.44 h

Sequence: MRLTAKQVTWLKVCLHLAGLLPFLWLVWAINHGGLGADPVKDIQHFTGRTALKFLLATLLITPLARYAKQPLLIRTRRLLGLWCFAWATLHLTSYALLELGVNNLALLGKELITRPYLTLGIISWVILLALAFTSTQAMQRKLGKHWQQLHNFVYLVAILAPIHYLWSVKIISPQPLIYAGLAVLLLALRYKKLRSLFNRLRKQVHNKLSV
- total protein half-life in vivo [10]: 8.91 h

Sequence: MKKILTTPIKAEDLQDIRVGDVIYLTGTLVTCRDVCHRRLIELKRPIPYDLNGKAIFHAGPIVRKNGDKWEMVSVGPTTSMRMESFEREFIEQTGVKLVVGKGGMGPLTEEGCQKFKALHVIFPAGCAVLAATQVEEIEEVHWTELGMPESLWVCRVKEFGPLIVSIDTHGNNLIAENKKLFAERRDPIVEEICEHVHYIK [P0AC35]
- total protein half-life in vivo [1]: 6.21 h
